In paper PMC11912937 (The Journal of Cell Biology, 2025):

Columns and labels:
Conditions in all cases: both partners purified
[1] = target: T1, FACT complex (SPT16/SSRP1), full length, untreated (human, UniProt Q9Y5B9 1-1047; Q08945 1-709, phosphorylated as purified from insect cells; residues not printed | phosphorylated as purified from insect cells; residues not given); assay: pull-down; amylose resin, MBP-CENP-C fusion proteins (fragments or full-length ^MBPCENP-C^EGFP) as baits, FACT or FACT constructs as preys; 3 µM each; 20 mM Hepes pH 6.8, 300 mM NaCl, 2.5% glycerol, 1 mM TCEP, 0.01% Tween; 4°C
T1 construct: SPT16, FACT subunit; SSRP1, FACT subunit; His tags are followed by a TEV site; cleavage is not described; also called FAcilitates Chromatin Transcription complex; full-length FACT; source: Tnao38 insect cells (baculovirus), purified (HisTrap, HiTrap Q, SEC)
T1 sequence (Q9Y5B9 whole entry, the tested form may be a part, one chain of several): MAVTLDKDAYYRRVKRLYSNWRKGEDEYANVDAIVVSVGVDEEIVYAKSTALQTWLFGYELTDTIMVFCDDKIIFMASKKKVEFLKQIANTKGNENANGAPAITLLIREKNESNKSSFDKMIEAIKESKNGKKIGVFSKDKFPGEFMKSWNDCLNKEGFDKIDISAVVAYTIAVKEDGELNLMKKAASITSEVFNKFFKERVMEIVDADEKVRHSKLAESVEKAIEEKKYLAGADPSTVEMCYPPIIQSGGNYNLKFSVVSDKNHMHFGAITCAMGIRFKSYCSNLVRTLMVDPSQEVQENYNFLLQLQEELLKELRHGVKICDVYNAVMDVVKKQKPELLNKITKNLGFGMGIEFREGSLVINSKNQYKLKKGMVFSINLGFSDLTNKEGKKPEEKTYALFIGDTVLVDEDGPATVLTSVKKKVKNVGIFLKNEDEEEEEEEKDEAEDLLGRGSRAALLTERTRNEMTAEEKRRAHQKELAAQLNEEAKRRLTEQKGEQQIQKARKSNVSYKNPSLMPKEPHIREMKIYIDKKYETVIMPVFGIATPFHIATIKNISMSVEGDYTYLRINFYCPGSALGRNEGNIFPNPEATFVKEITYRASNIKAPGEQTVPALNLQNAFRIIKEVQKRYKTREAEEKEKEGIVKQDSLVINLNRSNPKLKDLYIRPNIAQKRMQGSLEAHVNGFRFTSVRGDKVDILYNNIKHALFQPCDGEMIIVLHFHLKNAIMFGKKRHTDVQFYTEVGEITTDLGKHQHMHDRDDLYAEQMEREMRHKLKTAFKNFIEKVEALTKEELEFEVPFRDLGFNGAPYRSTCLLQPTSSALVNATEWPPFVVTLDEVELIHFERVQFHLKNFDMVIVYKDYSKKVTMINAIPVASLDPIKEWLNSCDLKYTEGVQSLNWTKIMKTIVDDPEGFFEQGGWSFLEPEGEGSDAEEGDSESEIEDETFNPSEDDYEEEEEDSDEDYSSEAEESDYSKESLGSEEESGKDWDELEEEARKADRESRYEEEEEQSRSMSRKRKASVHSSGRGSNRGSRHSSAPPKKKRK

[2] = target: T2, ^MBPCENP-C^EGFP (a full-length CENP-C construct) (human, UniProt Q03188 1-943); assay: as above
T2 construct: CENP-C; also called ^His-MBPCENP-C^EGFP; source: Tnao38 insect cells (baculovirus), purified (TALON, heparin, SEC); not shown: MBP, N-terminal, kept; EGFP, C-terminal, kept
T2 sequence (Q03188 whole entry): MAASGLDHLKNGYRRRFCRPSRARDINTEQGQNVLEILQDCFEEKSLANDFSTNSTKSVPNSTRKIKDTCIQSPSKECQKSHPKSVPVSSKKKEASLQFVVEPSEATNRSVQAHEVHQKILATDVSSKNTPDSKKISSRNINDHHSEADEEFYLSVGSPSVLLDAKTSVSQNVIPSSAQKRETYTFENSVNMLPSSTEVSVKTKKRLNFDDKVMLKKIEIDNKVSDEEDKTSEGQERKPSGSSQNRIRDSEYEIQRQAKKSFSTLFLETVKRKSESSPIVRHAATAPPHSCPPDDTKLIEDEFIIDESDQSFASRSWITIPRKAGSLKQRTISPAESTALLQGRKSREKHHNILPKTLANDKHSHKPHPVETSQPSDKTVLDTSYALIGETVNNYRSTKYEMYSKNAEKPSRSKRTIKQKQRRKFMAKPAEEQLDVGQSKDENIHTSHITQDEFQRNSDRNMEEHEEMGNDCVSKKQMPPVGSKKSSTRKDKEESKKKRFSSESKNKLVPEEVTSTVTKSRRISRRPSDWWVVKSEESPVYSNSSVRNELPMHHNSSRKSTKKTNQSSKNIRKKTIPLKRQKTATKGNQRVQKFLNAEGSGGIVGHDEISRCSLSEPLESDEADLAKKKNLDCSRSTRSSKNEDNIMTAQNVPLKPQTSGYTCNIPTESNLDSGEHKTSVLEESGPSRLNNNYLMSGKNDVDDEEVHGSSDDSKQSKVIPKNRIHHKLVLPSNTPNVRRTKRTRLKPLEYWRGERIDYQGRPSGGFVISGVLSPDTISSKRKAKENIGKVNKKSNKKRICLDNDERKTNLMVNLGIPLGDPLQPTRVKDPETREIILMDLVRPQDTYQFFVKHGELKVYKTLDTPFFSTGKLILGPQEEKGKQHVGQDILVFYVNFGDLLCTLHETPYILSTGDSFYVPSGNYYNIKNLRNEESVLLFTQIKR

[3] = target: T3, ^GSTCENP-OPQUR (CENP-OPQUR with CENP-U fused to an N-terminal GST) (human, UniProt Q9BU64 1-300; Q6IPU0 1-288; Q7L2Z9 1-268; Q71F23 1-418; Q13352 1-177); assay: pull-down; glutathione-agarose, CENP-OPQUR with GST on CENP-U as bait, FACT constructs as preys; 3 µM each; 20 mM Hepes pH 6.8, 300 mM NaCl, 2.5% glycerol, 1 mM TCEP, 0.01% Tween; 4°C
T3 construct: CENP-O; CENP-P; CENP-Q; CENP-U; CENP-R; also called GST-tagged CENP-OPQUR; not shown: GST, N-terminal, kept; copies: + + + +

[4] = target: T4, CCAN, 16-subunit constitutive centromere-associated network reconstituted with CENP-C^2–545 (human, UniProt Q03188 2-545; Q9H3R5 1-247; Q92674 1-756; Q9BS16 1-269; Q9NSP4 1-180; Q8N0S6 …); assay: pull-down; amylose resin, MBP-tagged FACT (untreated, dephosphorylated, kinase-treated or truncated) as bait, CCAN or CCAN subcomplexes as preys; 3 µM each; 20 mM Hepes pH 6.8, 300 mM NaCl, 2.5% glycerol, 1 mM TCEP, 0.01% Tween; 4°C; SDS-PAGE, Coomassie
T4 construct: CENP-H; CENP-I; CENP-K; CENP-M; CENP-L; CENP-N; CENP-O; CENP-P; CENP-Q; CENP-U; CENP-R; CENP-T; CENP-W; CENP-S; CENP-X; source: recombinant subcomplexes expressed and purified as previously reported, mixed to reconstitute CCAN; copies: + + + + + + + + + + + + + + +

B1: ^MBPCENP-C^546–600-His (domain or fragment, human, UniProt Q03188 546-600, looked up)
chain: VRNELPMHHNSSRKSTKKTNQSSKNIRKKTIPLKRQKTATKGNQRVQKFLNAEGS
notes: CENP-C, residues 546-600; not shown: MBP, N-terminal, kept
[1]
  binding result: binds

B2: ^MBPCENP-C^721–759-His (domain or fragment, human, UniProt Q03188 721-759, looked up)
chain: KNRIHHKLVLPSNTPNVRRTKRTRLKPLEYWRGERIDYQ
notes: CENP-C, residues 721-759; not shown: MBP, N-terminal, kept
[1]
  binding result: binds

B3: SPT16^Mid-AID (SPT16^644–988) (domain or fragment, human, UniProt Q9Y5B9 644-988, looked up)
chain: GIVKQDSLVINLNRSNPKLKDLYIRPNIAQKRMQGSLEAHVNGFRFTSVRGDKVDILYNNIKHALFQPCDGEMIIVLHFHLKNAIMFGKKRHTDVQFYTEVGEITTDLGKHQHMHDRDDLYAEQMEREMRHKLKTAFKNFIEKVEALTKEELEFEVPFRDLGFNGAPYRSTCLLQPTSSALVNATEWPPFVVTLDEVELIHFERVQFHLKNFDMVIVYKDYSKKVTMINAIPVASLDPIKEWLNSCDLKYTEGVQSLNWTKIMKTIVDDPEGFFEQGGWSFLEPEGEGSDAEEGDSESEIEDETFNPSEDDYEEEEEDSDEDYSSEAEESDYSKESLGSEEESGK
notes: SPT16, Mid domain and AID segment, residues 644-988; also called construct 3; source: Tnao38 insect cells (baculovirus), purified (HisTrap, HiTrap Q, SEC)
[2]
  binding result: binds

B4: FACT^trunc (SPT16^508–988/SSRP1^1–514) (complex, human)
chain 1: SNVSYKNPSLMPKEPHIREMKIYIDKKYETVIMPVFGIATPFHIATIKNISMSVEGDYTYLRINFYCPGSALGRNEGNIFPNPEATFVKEITYRASNIKAPGEQTVPALNLQNAFRIIKEVQKRYKTREAEEKEKEGIVKQDSLVINLNRSNPKLKDLYIRPNIAQKRMQGSLEAHVNGFRFTSVRGDKVDILYNNIKHALFQPCDGEMIIVLHFHLKNAIMFGKKRHTDVQFYTEVGEITTDLGKHQHMHDRDDLYAEQMEREMRHKLKTAFKNFIEKVEALTKEELEFEVPFRDLGFNGAPYRSTCLLQPTSSALVNATEWPPFVVTLDEVELIHFERVQFHLKNFDMVIVYKDYSKKVTMINAIPVASLDPIKEWLNSCDLKYTEGVQSLNWTKIMKTIVDDPEGFFEQGGWSFLEPEGEGSDAEEGDSESEIEDETFNPSEDDYEEEEEDSDEDYSSEAEESDYSKESLGSEEESGK
chain 2: MAETLEFNDVYQEVKGSMNDGRLRLSRQGIIFKNSKTGKVDNIQAGELTEGIWRRVALGHGLKLLTKNGHVYKYDGFRESEFEKLSDFFKTHYRLELMEKDLCVKGWNWGTVKFGGQLLSFDIGDQPVFEIPLSNVSQCTTGKNEVTLEFHQNDDAEVSLMEVRFYVPPTQEDGVDPVEAFAQNVLSKADVIQATGDAICIFRELQCLTPRGRYDIRIYPTFLHLHGKTFDYKIPYTTVLRLFLLPHKDQRQMFFVISLDPPIKQGQTRYHFLILLFSKDEDISLTLNMNEEEVEKRFEGRLTKNMSGSLYEMVSRVMKALVNRKITVPGNFQGHSGAQCITCSYKASSGLLYPLERGFIYVHKPPVHIRFDEISFVNFARGTTTTRSFDFEIETKQGTQYTFSSIEREEYGKLFDFVNAKKLNIKNRGLKEGMNPSYDEYADSDEDQHDAYLERMKEEGKIREENANDSSDDSGEETDESFNPGEEEEDVAEEFDSNASASSSSNEGDSDRDE
notes: SPT16, residues 508-988; SSRP1, residues 1-514; also called construct 2; source: Tnao38 insect cells (baculovirus), purified (HisTrap, HiTrap Q, SEC)
[3]
  binding result: binds

B5: ^MBPFACT^trunc (MBP-TEV-SPT16^508–988 + His-TEV-SSRP1^1–514) (complex, human)
chain 1: B4 chain 1
chain 2: B4 chain 2
notes: SPT16, residues 508-988; SSRP1, residues 1-514; also called construct 2 with an N-terminal MBP fusion on SPT16; source: Tnao38 insect cells (baculovirus), purified (HisTrap, HiTrap Q, SEC); not shown: MBP, N-terminal, kept
[4]
  binding result: binds
